Consider five molecules from patent US20140056903A1 (Regeneron, published 2014).

The target in test [1] is T1, human GFRα3 expressed with a C-terminal hFc tag (human).
T1 construct: also called hGFRα3-hFc
Briefly: SPR, Ab captured, 37C. How it is done:
(§1) Antibodies were tested for binding to human GFRα3 expressed with either a C-terminal myc-myc-hexahistidine tag (hGFRα3-mmh; SEQ ID: 370, a C-terminal hFc tag (hGFRα3-hFc; SEQ ID:371), or a C-terminal mFc tag (hGFRα3-mFc; SEQ ID:372), as well as monkey GFRα3 expressed with a C-terminal myc-myc-hexahistidine tag (MfGFRα3-mmh; SEQ ID:373). Anti-GFRα3 antibodies were captured on either a goat anti-mouse IgG polyclonal antibody (GE Healthcare, #BR-1008-38) or a mouse anti-human IgG monoclonal antibody (GE Healthcare, #BR-1008-39) surface created through direct amine coupling to a Biacore CM5 sensor chip. Kinetic experiments were carried out using HBS-EP (10 mM HEPES, 150 mM NaCl, 3 mM EDTA, 0.05% Surfactant P20, at pH 7.4) or PBS buffer containing 0.05% v/v surfactant P20 as both the running buffer and the sample buffer. Binding to human GFRα3-mmh or monkey GFRα3-mmh was evaluated by injecting several concentrations ranging from 200 to 7.4 nM (3-fold dilutions) across the captured antibody surface. Binding to human GFRα3-mFc or human GFRα3-hFc was evaluated by injecting several concentrations ranging from 100 to 3.7 nM (3-fold dilutions) across the captured antibody surface. Antibody-antigen association was monitored for up to 4 minutes, while dissociation in buffer was monitored for up to 20 minutes. Kinetic association (kₐ) and dissociation (kd) rate constants were determined by processing and fitting the data to a 1:1 binding model using Scrubber 2.0c curve fitting software. Binding dissociation equilibrium constants (KD) and dissociative half-lives (t_{1/2}) were calculated from the kinetic rate constants as: KD (M)=kd/kₐ and t_{1/2} (min)=[ln 2/(60*kd)].

Test [2] deals with T2, human GFRα3 expressed with a C-terminal myc-myc-hexahistidine tag (human, UniProt O60609 32-374, biotinylated (sites not given) in ELISA format 2 and in the Octet cross-competition; not in SPR).
T2 construct: also called hGFRα3-mmh; hGFRα3-mmH
Kind of test: SPR, Ab captured, 37C. How it is done: as §1

The target of test [3] is T3, monkey GFRα3 expressed with a C-terminal myc-myc-hexahistidine tag (monkey (Mf), UniProt O60609 32-374 (human entry), limits assumed).
T3 construct: also called MfGFRα3-mmh; MfGFRα3-mmH
T3 chain: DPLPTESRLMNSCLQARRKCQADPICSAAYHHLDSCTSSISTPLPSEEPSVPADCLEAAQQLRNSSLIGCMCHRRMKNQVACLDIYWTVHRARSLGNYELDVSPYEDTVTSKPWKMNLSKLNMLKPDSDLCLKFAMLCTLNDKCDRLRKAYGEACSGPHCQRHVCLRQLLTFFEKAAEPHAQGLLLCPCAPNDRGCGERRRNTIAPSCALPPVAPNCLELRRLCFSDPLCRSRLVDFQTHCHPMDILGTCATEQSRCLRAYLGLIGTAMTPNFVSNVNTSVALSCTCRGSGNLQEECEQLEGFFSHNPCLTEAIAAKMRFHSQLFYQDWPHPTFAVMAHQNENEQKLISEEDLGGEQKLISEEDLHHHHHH
Kind of test: SPR, Ab captured, 37C. The method, then: as §1

Test [4] addresses T1, human GFRα3 expressed with a C-terminal …. Briefly: SPR, Ab captured, 25C. The method, then: as §1
Test [5] has as its target T2, human GFRα3 expressed with a C-terminal …. Briefly: SPR, Ab captured, 25C. How it is done:
as §1

Test [6] addresses T3, monkey GFRα3 expressed with a …. Briefly: SPR, Ab captured, 25C. The method, then:
as §1

Some results are limits rather than exact numbers.

B1: H1M2212N (antibody, V domains shown)
VH: EVQLLESGGGLVQPGGSLRLSCAASGFTFSSYAMSWVRQGPGKGLEWVSGISGSGGSTYNADSVKGRFTISRDNSKNTLYLQMNSLRAEDTAVYYCAKDSGTYWYYFDYWGQGILVTVSS
VL: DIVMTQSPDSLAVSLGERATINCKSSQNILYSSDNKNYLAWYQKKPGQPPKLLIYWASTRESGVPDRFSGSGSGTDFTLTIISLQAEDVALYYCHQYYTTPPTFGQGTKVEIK
notes: chimeric, human variable and mouse constant domains (H1M)
Turning to B1, the Kd was 0.0413 nM in test [1]; 0.297 nM in test [2]; 0.294 nM in test [3]; 0.0128 nM in test [4]; 0.197 nM in test [5]; 0.293 nM in test [6]. Besides, the koff in test [1] was found to be 6.17e-05 s⁻¹; in test [2], 0.000303 s⁻¹; in test [3], 0.00026 s⁻¹; in test [4], 1.44e-05 s⁻¹; in test [5] it was 0.000158 s⁻¹; in test [6], 0.000112 s⁻¹. For the same molecule, the kon came to 1.49e+06 M⁻¹ s⁻¹ in test [1]; 1.02e+06 M⁻¹ s⁻¹ in test [2]; 884000 M⁻¹ s⁻¹ in test [3]; 1.12e+06 M⁻¹ s⁻¹ in test [4]; 800000 M⁻¹ s⁻¹ in test [5]; 384000 M⁻¹ s⁻¹ in test [6]. The t1/2 was 187 min in test [1]; 38 min in test [2]; 44 min in test [3]; 13.3 h in test [4]; 73 min in test [5]; 103 min in test [6].

B2: H1M2236N (antibody, V domains shown)
VH: EVQLLESGGNLVQPGGSLRLSCAASGFTFSSYAMTWVRQAPGKGLEWVSTISGSGTSTYYADSVKGRFTISRDNSRDTVFLQMNSLRAEDTAVYYCSKPSALRFLHWLCMDVWGQGTLVTVSS
VL: DIQMTQSPSSLSAFVGDRVTITCRASQDIRNYLDWFQQKPGKAPKSLIYAASNLQSGVPSRFGGSGSGTDFTLTINSLQPEDFVTYYCQQYNSYPPTFGGGTKVEIK
notes: as for B1
For B2, the Kd came to 0.061 nM in test [1]; 0.532 nM in test [2]; 2.58 nM in test [3]; 0.0137 nM in test [4]; 0.275 nM in test [5]; 0.97 nM in test [6]. The koff in test [1] amounted to 9.65e-05 s⁻¹; in test [2], 0.00055 s⁻¹; in test [3], 0.00112 s⁻¹; in test [4], 1.76e-05 s⁻¹; in test [5], 0.000208 s⁻¹; in test [6], 0.000286 s⁻¹. In addition, the kon is 1.58e+06 M⁻¹ s⁻¹ in test [1]; 1.03e+06 M⁻¹ s⁻¹ in test [2]; 434000 M⁻¹ s⁻¹ in test [3]; 1.28e+06 M⁻¹ s⁻¹ in test [4]; 760000 M⁻¹ s⁻¹ in test [5]; 296000 M⁻¹ s⁻¹ in test [6]. Moreover, the t1/2 in test [1] was 120 min; in test [2], 21 min; in test [3] it was 10 min; in test [4] it was 11 h; in test [5] it was 56 min; in test [6] it was 40 min.

B3: H1M2243N (antibody, V domains shown)
VH: QVQLVQSGAEVKKPGASVKVSCKASGYTFTSYGIIWVRQAPGQGLEWMGWISGYNGNTNYTQNLQGRVTMTTDTSTTTAYMELRSLRSDDTAVYYCARWGIATRPYYYYGMDVWGQGTTVTVSS
VL: DIQMTQSPSSLSASVGDRVTITCRASQDITNYLAWFQQKPGKAPKSLIYAASSLQSGVPSKFSGSGSGTDFTLTISSLQPEDFATYYCQQYNSYPPTFGPGTKVDIK
notes: as for B1
For B3, the Kd was 0.117 nM in test [1]; 4.35 nM in test [2]; 54.7 nM in test [3]; at most 0.0075 nM in test [4]; 2.04 nM in test [5]; 10.2 nM in test [6]. Also, the koff is 2.18e-05 s⁻¹ in test [1]; 0.000595 s⁻¹ in test [2]; 0.00275 s⁻¹ in test [3]; at most 1e-06 s⁻¹ in test [4]; 0.000261 s⁻¹ in test [5]; 0.000658 s⁻¹ in test [6]. The kon in test [1] is 186000 M⁻¹ s⁻¹; in test [2], 137000 M⁻¹ s⁻¹; in test [3], 50200 M⁻¹ s⁻¹; in test [4] it was 134000 M⁻¹ s⁻¹; in test [5] it was 128000 M⁻¹ s⁻¹; in test [6], 64600 M⁻¹ s⁻¹. In addition, the t1/2 in test [1] was found to be 529 min; in test [2] it was 19 min; in test [3], 4 min; in test [4], 192 h; in test [5] it was 44 min; in test [6], 18 min.

B4: H2aM2210N (antibody, mouse IgG2, V domains shown)
VH: EVQLLESGGGLVQPGGSLRVSCAASGFTFSTSAMSWVRQAPGKGLEWVSGISGIGGGSTYYADSVKGRFTISRDNSKNTLYLQMNSLRAEDTAVYFCAKFYKWNSYIFDLWGQGTMVTVSS
VL: EIVLTQSPDTLSLSPGERATLSCRASQSVSSSYFAWYQQKPGQAPRLLMYSASSRATGIPDRFSGSGSGTDFSLTISRLEPEDFAVYYCQQYGRSLTFGGGTKVEIK
notes: chimeric, mouse IgG2 Fc (H2M/H2aM); also called H2M2210N
Consider B4, for which the Kd came out at 0.242 nM in test [1]; 15.8 nM in test [2]; 76.4 nM in test [3]; 0.22 nM in test [4]; 12.8 nM in test [5]; 28.9 nM in test [6]. Also, the koff in test [1] turned out to be 7.66e-05 s⁻¹; in test [2], 0.00335 s⁻¹; in test [3] it was 0.00618 s⁻¹; in test [4] it was 3.69e-05 s⁻¹; in test [5] it was 0.000863 s⁻¹; in test [6], 0.0012 s⁻¹. In addition, the kon in test [1] is 316000 M⁻¹ s⁻¹; in test [2], 212000 M⁻¹ s⁻¹; in test [3], 80900 M⁻¹ s⁻¹; in test [4], 168000 M⁻¹ s⁻¹; in test [5], 67300 M⁻¹ s⁻¹; in test [6], 41600 M⁻¹ s⁻¹. The t1/2 in test [1] was 151 min; in test [2], 3 min; in test [3] it was 2 min; in test [4] it was 5.22 h; in test [5] it was 13 min; in test [6] it was 10 min.

B5: H1M2207N (antibody, V domains shown)
VH: EVQLVESGGGLVQPGRSLRLSCAASGFTFNDYAMHWVRQAPGKGLEWVSGISWNSGNIGYADSVKGRFTISRDNAKNSLYLQMNSLRAEDTALYFCARDTRMATRPFDYWGQGTLVTVSS
VL: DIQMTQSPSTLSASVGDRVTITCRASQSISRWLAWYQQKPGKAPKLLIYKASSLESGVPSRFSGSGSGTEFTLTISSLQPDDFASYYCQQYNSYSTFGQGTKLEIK
notes: as for B1
As for B5, the Kd in test [1] came out at 0.531 nM; in test [2] it was 10.8 nM; in test [3], 145 nM; in test [4], 0.163 nM; in test [5], 16 nM; in test [6] it was 97.2 nM. The koff in test [1] turned out to be 0.000108 s⁻¹; in test [2], 0.00144 s⁻¹; in test [3], 0.00663 s⁻¹; in test [4], 2.6e-05 s⁻¹; in test [5], 0.0009 s⁻¹; in test [6], 0.00388 s⁻¹. The kon came to 203000 M⁻¹ s⁻¹ in test [1]; 133000 M⁻¹ s⁻¹ in test [2]; 45800 M⁻¹ s⁻¹ in test [3]; 159000 M⁻¹ s⁻¹ in test [4]; 56100 M⁻¹ s⁻¹ in test [5]; 39900 M⁻¹ s⁻¹ in test [6]. Further, the t1/2 in test [1] stood at 107 min; in test [2], 8 min; in test [3], 2 min; in test [4], 7.4 h; in test [5] it was 13 min; in test [6], 3 min.
